Data from patent US20090324579A1 (UNIVERSITY OF WINDSOR, published 2009).

Target: T1, BSA (UniProt P02769 25-607)
T1 construct: also called control BSA antigen; control antigen
Test: phage ELISA

T1 sequence (P02769 25-607 limits assumed): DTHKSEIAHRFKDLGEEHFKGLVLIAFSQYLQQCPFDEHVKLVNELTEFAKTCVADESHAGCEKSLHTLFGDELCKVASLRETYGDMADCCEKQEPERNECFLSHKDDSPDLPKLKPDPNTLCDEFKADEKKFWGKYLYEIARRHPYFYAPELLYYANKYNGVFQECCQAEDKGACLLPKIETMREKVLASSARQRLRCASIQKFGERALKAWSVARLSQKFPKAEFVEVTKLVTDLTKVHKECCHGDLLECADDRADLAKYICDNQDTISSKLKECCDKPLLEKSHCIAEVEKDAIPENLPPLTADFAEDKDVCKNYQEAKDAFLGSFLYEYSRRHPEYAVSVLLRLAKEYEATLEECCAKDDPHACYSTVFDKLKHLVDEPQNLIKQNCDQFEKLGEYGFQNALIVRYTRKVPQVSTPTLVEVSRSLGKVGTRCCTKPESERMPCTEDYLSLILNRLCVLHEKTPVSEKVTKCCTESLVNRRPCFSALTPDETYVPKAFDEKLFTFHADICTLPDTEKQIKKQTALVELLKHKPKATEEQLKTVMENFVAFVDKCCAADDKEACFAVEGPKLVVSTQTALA

| Binder | binding result |
| --- | --- |
| Casp2 VHH displayed on phage (VHH, also called Casp2 sdAb) VHH: DVQLQASGGGLVQAGGSLRLSCAASTNIFRDKFMAWYRQAPGKQRELVASITTGGRTDYADSVKGRFTISRDNTKDTMYLQMNSLKPEDTAVYYCAGFLGRTYWGQGTQVTVSS | no binding |
| Casp1 VHH displayed on phage (VHH, also called Casp1 sdAb) VHH: DVQLQASGGGLVQPGGSLRLSCAASGSLSRITVMGWYRQAPGKQRELVAIITSSGGTNYADSVKGRFTISRDNAKNTVYLQMNSLKPEDTAVYYCLAARGYDRYWGRGTQVTVSS | no binding |
